Our source for the ELISA O.D. values is US20040157214A1.

The experiment deals with bovine thyroglobulin (bovine) (UniProt P01267). Description: phage ELISA, 200 ug/ml thyroglobulin. A general note: In an ELISA, binding on a coated surface is turned into a signal by an enzyme label.
bovine thyroglobulin (bovine), sequence (P01267 20-2769 limits assumed): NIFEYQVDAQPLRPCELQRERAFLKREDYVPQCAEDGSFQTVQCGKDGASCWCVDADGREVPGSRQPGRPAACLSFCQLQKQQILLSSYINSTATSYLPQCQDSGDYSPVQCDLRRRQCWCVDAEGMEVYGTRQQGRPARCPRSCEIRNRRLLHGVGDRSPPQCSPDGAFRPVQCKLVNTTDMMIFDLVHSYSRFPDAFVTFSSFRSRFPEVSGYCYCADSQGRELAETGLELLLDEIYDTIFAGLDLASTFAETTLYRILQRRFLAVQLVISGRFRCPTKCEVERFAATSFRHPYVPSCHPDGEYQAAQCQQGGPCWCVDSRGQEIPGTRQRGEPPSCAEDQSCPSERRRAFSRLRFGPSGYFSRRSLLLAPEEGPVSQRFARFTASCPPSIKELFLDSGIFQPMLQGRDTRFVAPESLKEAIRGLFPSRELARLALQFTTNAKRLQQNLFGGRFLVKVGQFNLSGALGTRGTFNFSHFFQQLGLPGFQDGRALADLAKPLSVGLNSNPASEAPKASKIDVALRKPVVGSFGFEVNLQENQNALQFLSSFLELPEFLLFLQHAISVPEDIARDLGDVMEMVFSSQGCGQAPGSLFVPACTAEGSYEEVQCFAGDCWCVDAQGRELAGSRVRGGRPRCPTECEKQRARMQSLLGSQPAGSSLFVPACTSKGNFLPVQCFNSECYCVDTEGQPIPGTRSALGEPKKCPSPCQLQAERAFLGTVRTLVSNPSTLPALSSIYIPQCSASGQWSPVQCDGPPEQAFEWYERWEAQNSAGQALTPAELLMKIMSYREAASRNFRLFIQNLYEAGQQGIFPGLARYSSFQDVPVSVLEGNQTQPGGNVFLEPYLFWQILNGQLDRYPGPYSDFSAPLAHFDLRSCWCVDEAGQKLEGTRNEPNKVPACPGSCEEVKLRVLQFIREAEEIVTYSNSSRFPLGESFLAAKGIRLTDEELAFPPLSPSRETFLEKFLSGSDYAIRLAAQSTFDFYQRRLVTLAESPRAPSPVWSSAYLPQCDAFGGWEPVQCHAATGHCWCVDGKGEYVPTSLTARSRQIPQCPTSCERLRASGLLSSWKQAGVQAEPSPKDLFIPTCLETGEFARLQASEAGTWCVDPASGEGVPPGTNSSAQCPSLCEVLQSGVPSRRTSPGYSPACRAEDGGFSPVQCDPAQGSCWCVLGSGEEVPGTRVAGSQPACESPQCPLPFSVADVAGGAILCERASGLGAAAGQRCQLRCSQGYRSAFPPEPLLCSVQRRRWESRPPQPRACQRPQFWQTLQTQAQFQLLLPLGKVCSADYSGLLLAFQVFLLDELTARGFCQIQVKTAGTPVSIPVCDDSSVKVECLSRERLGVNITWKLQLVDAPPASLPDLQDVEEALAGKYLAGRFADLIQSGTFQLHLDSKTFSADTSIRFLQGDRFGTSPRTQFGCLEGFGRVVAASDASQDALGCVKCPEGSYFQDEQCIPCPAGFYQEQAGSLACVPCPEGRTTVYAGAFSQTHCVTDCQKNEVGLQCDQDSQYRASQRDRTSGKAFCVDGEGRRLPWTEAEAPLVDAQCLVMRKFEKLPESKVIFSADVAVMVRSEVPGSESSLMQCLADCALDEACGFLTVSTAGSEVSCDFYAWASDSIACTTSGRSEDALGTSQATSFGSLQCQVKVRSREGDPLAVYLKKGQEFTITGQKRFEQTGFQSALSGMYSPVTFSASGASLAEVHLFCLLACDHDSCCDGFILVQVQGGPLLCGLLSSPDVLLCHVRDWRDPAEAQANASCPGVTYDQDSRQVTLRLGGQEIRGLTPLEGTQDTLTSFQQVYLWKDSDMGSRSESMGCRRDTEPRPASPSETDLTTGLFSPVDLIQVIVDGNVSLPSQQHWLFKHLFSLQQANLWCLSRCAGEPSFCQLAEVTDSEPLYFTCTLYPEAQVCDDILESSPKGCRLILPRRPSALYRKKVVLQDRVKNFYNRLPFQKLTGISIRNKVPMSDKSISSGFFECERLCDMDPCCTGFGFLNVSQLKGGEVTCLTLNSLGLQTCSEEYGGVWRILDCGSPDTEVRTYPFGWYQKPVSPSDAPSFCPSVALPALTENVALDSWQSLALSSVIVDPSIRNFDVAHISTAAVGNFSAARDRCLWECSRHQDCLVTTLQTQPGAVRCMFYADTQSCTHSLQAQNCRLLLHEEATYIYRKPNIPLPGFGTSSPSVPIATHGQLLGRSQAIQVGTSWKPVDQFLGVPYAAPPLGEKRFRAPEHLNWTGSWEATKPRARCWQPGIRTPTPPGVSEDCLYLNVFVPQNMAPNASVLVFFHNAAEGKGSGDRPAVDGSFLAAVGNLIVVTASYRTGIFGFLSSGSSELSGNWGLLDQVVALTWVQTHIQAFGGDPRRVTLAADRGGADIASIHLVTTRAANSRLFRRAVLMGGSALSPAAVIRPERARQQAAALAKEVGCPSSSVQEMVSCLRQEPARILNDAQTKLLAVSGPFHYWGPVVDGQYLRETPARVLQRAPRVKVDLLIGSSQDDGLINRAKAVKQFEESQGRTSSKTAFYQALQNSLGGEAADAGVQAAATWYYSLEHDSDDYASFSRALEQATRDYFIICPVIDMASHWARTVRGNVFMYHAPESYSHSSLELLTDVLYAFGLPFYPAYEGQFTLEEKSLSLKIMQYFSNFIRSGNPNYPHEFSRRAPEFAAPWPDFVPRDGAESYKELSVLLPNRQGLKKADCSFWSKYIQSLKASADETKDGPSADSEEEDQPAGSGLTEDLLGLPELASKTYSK

pCAT-3 non-recombinant vector phagemid, sequence (P03661 19-424): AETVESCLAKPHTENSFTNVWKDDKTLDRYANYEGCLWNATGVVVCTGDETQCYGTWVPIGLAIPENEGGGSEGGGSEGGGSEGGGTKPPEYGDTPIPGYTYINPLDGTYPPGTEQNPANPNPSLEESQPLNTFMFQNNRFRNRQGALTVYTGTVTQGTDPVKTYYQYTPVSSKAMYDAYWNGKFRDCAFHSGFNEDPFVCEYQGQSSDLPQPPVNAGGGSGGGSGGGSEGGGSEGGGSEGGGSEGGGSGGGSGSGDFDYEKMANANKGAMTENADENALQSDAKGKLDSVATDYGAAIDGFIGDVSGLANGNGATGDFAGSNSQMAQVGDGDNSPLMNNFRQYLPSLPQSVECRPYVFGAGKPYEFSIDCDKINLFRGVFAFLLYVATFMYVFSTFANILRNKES

On to “pCAT-3 non-recombinant vector phagemid (from UniProt P03661 19-424)”, for which the ELISA O.D. worked out at 0.07 O.D.
